Assay results as given in article PMC3699456.

T1: soluble RP105 (extracellular domain of mouse RP105, residues Thr21-Ala630) (mouse)
T1 sequence (Q62192 whole entry, looked up): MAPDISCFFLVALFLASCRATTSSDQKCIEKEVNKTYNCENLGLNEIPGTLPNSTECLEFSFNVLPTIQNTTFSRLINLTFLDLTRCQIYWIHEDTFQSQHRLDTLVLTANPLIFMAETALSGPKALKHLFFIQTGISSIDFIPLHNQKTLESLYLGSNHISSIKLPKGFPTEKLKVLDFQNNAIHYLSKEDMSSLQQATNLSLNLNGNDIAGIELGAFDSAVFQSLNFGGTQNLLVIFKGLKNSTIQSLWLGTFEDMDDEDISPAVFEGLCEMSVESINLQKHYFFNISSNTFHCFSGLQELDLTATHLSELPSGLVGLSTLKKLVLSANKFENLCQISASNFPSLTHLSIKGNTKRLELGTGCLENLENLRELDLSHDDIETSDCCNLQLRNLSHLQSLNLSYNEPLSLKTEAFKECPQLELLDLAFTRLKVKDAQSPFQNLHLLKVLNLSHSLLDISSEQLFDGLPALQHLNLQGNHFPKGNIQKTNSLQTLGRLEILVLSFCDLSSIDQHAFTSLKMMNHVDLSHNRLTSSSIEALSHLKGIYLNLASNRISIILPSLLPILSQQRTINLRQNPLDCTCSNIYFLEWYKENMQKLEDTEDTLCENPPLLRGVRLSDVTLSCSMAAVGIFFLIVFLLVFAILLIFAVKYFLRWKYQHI


Tests used:
[1] = target: solRP105-MD1 complex (mouse) (UniProt O88188); experiment: SEC; Superdex 200 PC3.2/30; 50 mM Tris-Cl pH 8.0, 300 mM NaCl; 0.05 ml/min; purified solRP105 and purified solRP105-MD1 complex
[2] = target: solRP105-MD1 complex (mouse) (UniProt O88188); experiment: SEC-MALS; WTC-030S5 column (Wyatt); 50 mM Tris-Cl pH 8.0, 300 mM NaCl; 0.5 ml/min; purified solRP105-MD1 complex
[3] = target: T1, soluble RP105 (extracellular domain of mouse RP105, residues Thr21-Ala630) (mouse); experiment: as above

Chain of solRP105-MD1 complex (O88188 whole entry, looked up, the tested form may be a part, one chain of several): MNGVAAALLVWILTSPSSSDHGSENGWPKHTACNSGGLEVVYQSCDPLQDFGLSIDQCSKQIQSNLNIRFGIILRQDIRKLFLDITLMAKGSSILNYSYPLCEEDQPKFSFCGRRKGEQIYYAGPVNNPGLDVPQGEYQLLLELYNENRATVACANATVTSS

Molecule | stoichiometry N (RP105-MD1 units per complex) [1] | stoichiometry N (RP105-MD1 units per complex) [2] | stoichiometry N (MD1 per RP105 (2:2)) [3]
solRP105-MD1 complex (from UniProt O88188 20-162) | 2 | 2 | 
mouse MD1 without its native signal sequence (residues Asp20-Ser162) (natural protein, differential N-glycosylation at Asn96 and Asn156) DHGSENGWPKHTACNSGGLEVVYQSCDPLQDFGLSIDQCSKQIQSNLNIRFGIILRQDIRKLFLDITLMAKGSSILNYSYPLCEEDQPKFSFCGRRKGEQIYYAGPVNNPGLDVPQGEYQLLLELYNENRATVACANATVTSSAAA |  |  | 1
